Where “and” joins values, the source holds several entries; their conditions need not be identical. Equal values may be shown once. Each block holds one binder with its values, some of them ahead of it.
What was measured:
[1] = target: T1, B7H3 (antigen of the 'B7H3 Octet' value); experiment: Octet, monovalent affinity of the B7H3 arm; construct measured and form of B7H3 not given
T1 construct: antigen of the Octet measurement
T1 sequence (Q5ZPR3 whole entry, species assumed, looked up): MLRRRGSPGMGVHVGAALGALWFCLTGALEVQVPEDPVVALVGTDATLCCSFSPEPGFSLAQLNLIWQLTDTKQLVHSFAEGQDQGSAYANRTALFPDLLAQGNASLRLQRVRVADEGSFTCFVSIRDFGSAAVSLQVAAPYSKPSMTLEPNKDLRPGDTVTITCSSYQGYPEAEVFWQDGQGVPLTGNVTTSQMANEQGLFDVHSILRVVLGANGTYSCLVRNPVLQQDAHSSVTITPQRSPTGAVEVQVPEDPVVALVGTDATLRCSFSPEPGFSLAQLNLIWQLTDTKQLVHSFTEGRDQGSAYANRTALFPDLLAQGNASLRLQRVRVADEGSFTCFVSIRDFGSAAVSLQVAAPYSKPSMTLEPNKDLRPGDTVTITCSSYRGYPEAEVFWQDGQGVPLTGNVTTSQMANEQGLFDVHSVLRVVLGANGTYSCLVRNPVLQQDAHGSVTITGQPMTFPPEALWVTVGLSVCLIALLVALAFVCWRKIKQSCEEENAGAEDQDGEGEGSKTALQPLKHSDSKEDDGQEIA

[2] = target: T2, B7 Homolog 3 (B7H3) on B78 melanoma tumor cells; experiment: cell binding, RFU, B7H3 B78 cells (GD2 and human B7H3); both arms can bind
T2 construct: whole, on cells; In the PET study, tumours that were B7H3-positive and GD2-negative were also used; also called CD276; Cluster of Differentiation 276

[3] = target: T3, mB7H3 (endogenous mouse B7H3 on B16 and B78 cells) (mouse, UniProt Q8VE98); experiment: flow cytometry on B16 cells (no GD2, mouse B7H3), GAH PE; anti-GD2 antibody as control
T3 construct: B78 also carries GD2; also called murine B7H3
T3 sequence (receptor, looked up): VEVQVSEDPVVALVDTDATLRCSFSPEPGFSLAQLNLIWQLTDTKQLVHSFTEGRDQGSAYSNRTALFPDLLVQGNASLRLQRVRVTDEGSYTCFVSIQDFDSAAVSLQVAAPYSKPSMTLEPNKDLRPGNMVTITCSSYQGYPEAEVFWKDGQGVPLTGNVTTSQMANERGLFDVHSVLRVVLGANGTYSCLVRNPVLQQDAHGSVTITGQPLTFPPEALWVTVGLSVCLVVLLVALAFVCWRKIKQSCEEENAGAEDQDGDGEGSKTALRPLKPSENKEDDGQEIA

- Kd [1]: 2.4 nM
- EC50 [2]: 0.35 nM and 0.357 nM
B1: INV721 (bivalent bispecific anti-B7H3 x anti-GD2 antibody) (bispecific antibody, V domains shown)
VL 1: DIQMTQSPSSLSASVGDRVTITCRASQSVSSAVAWYQQKPGKAPKLLIYSASSLYSGVPSRFSGSRSGTDFTLTISSLQPEDFATYYCQQSGRSLYTFGQGTKVEIK
VH 1: EVQLVESGGGLVQPGGSLRLSCAASGFTFSTYYIHWVRQAPGKGLEWVAWIHPSGKYTYYADSVKGRFTISADTSKNTAYLQMNSLRAEDTAVYYCARHYQVGAMDYWGQGTLVTVSS
VL 2: DIQMTQSPSSLSASVGDRVTITCRSSQSLVHRNGNTYLHWYQQKPGKAPKLLIHKVSNRFSGVPSRFSGSGSGTDFTLTISSLQPEDFATYYCSQSTHVPPLTFGQGTKVEIK
VH 2: EVQLVESGGGLVQPGGSLRLSCAASGSSFTGYNMNWVRQAPGKGLEWVAAIDPYYGGTYYADSVKGRFTISADTSKNTAYLQMNSLRAEDTAVYYCASGMEYWGQGTLVTVSS
modifications: 89Zr-radiolabelled in the PET and biodistribution studies. An a-fucosylated version is used in FIG. 66.
notes: 89Zr-labelled in the in vivo PET study; also called I7-01/GD2-5/7; I7-01/GD2-7

B2: Invenra GD2-5 (antibody, V domains shown)
VH: B1 VH 2
VL: B1 VL 2
notes: anti-GD2 antibody; stands here only as a control on B16 cells; also called GD2-05; anti-GD2 monoclonal antibody GD2-5
- binding result [3]: no binding (tested: 1 ug antibody per million cells)

Source: patent US20230018670A1 (WIN THERAPEUTICS, published 2023)
